According to patent publication US5620849:

Target: E1/E2 complex (Bovine papillomavirus type 1) (UniProt P03116+P03122)
Test: footprint
Settings: E1 plus 100 ng E2: equivalent protection of E1 site at 10-fold lower E1 than without E2

UniProt P03116, sequence (P03116 whole entry, chain 1 of 2): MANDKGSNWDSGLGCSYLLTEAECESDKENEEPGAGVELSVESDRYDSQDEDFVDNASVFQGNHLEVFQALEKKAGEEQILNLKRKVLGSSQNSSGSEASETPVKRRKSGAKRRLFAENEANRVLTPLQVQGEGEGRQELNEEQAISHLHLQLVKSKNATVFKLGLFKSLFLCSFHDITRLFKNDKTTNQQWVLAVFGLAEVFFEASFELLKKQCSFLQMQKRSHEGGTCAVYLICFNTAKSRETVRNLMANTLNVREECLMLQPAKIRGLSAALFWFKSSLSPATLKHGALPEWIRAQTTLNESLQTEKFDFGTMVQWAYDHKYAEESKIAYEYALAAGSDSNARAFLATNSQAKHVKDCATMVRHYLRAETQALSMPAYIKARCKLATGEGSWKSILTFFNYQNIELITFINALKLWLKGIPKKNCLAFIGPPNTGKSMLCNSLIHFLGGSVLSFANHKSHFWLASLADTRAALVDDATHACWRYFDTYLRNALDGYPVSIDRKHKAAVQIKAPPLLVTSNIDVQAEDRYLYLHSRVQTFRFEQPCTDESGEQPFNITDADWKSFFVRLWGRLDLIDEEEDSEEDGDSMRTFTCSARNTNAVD
UniProt P03116, sequence (P03122 whole entry, chain 2 of 2): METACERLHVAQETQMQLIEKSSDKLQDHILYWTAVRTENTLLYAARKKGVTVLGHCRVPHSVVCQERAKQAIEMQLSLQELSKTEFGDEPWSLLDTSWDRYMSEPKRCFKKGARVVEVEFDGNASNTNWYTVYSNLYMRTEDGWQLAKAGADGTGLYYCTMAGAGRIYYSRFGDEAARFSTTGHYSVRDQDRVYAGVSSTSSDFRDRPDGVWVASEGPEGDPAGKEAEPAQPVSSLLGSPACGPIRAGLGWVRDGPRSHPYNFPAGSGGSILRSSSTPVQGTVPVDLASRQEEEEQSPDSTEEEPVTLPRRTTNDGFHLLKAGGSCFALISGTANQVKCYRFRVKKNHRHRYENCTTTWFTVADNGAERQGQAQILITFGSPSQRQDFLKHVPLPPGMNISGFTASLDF

Sequence: ACCGAAACCGGTAAGTAAAGACTATGTATTTTTTCCCAGTGAATANBBRBBRBBNNCNNBNNBCACACCATCACCGTT (double strand) [pKSO BPV origin fragment (7805-100)]
- binding signal: 10 fold
